What all share (format): physicochemical
Data set [1] is described as follows: Solution appearance of Composition C batches. As to the method: Physical properties of select Composition C batches were measured as described in the Methods section.
A short description of data set [2]: HPSEC trace / molecular weight distribution of different Compound D loading conjugates. As to the method:
(§1) The molecular weight distributions of Composition C conjugate, PHF and PHF-GA were measured by high performance size exclusion chromatography (HPSEC) with RI detection. Separation was carried out on a GE Healthcare Superose 6 column using 50 mM pH=7.4 phosphate 0.9% NaCl as an fluent. Dextran standards (American Polymer Standards Corporation) were used to establish a calibration curve of known molecular weight vs. retention time. Molecular weight distributions (weight average molecular weight (“Mw”), D90, D50, D10) were calculated based on the polysaccharide standard curve.
Composition C batches were analyzed by high performance size exclusion chromatography. […] Batches B and E have the additional desirable property of relatively high Compound D loading; approximately 3-fold higher than Batches C and F.
(In general: In gel filtration, larger molecules generally elute earlier.)

A short description of data set [3]: Peak molecular weight at ~3 and ~60 mg/ml (concentration dependence). As to the method: as §1
Peak molecular weight values were measured for Composition C batches in solution at ˜3 mg/ml and at ˜60 mg/ml.

With `CO[C@H]1[C@H](C2(C)OC2CC=C(C)C)[C@]2(CC[C@H]1OC(=O)NCc1ccc(NC(=O)CCCC(=O)O)cc1)CO2` (some centres unmarked) [Compound D], the “Solution Appearance” value in data set [1] was “Very slight”. For the same compound, in data set [2], the “SEC Trace” value is 2 peaks (high. Besides, the “% Change” value in data set [3] (Mp at ~60 mg/ml vs ~3 mg/ml) is listed as “+58%”. Further, the Mp at ~3 mg/ml in data set [3] (~3 mg/ml in solution) is 57.8 kDa. This compound also yielded a Mp at ~60 mg/ml in data set [3] (~60 mg/ml in solution) of 91.2 kDa.

For the origin of these results see patent US20130189218A1, “PHARMACEUTICAL FORMULATIONS FOR FUMAGILLIN DERIVATIVE-PHF CONJUGATES” (Mersana Therapeutics, Inc., priority 2011, published 2013).
